Test results reported in PMC6301718, “CDHR3 extracellular domains EC1-3 mediate rhinovirus C interaction with cells and as recombinant derivatives, are inhibitory to virus infection” (PLoS Pathogens, 2018).
Positions count from the first letter of the chain named. Names may count otherwise.

How the values were obtained:
[1] = molecular target: rEC1+3(Δ2) (CDHR3 residues 20–345, Δ129–231) (human) (UniProt Q6ZTQ4); assay: co-IP; refolded bacterial CDHR3 fragment (100 pmol) incubated with C15 virus (10^7 PFUe, 1 h, 25°C) and α-His mAb in 20 mM Tris, 137 mM NaCl, 2 mM CaCl2, 1% Triton x-100, protein-G sepharose; Western with α-His and α-C15; complexes also treated with 500 mM NaCl (Fig 5d)
[2] = molecular target: rEC1-3 N186A (20–345, C345A, N186A) (human) (UniProt Q6ZTQ4); assay: as above
[3] = molecular target: rEC1 (CDHR3 residues 20–130) (human) (UniProt Q6ZTQ4); assay: as above
[4] = molecular target: rEC1-3 (CDHR3 residues 20–345, C345A) (human) (UniProt Q6ZTQ4); assay: as above
[5] = molecular target: rEC1-2 (CDHR3 residues 20–237) (human) (UniProt Q6ZTQ4); assay: as above
[6] = molecular target: rEC1-3 K43A (20–345, C345A, K43A) (human) (UniProt Q6ZTQ4); assay: as above
[7] = molecular target: pHL-FLAG-CDHR3-His EC1-3 (1–345) (human) (UniProt Q6ZTQ4); assay: co-IP; HeLa-expressed CDHR3 fragments recovered from lysate with α-His mAb, denatured and refolded as the bacterial proteins, reacted with C15 virus; IP and detection with α-His mAb
[8] = molecular target: FLAG-tag-CDHR3 Y529 N186Q (human) (UniProt Q6ZTQ4); assay: co-IP; clarified lysate of transfected or stably transduced HeLa cells (2 mM CaCl2) incubated with sucrose purified C15 virus (10^7 PFUe) and α-CDHR3 antibody (cytoplasmic domain) overnight at 4°C, protein-G sepharose; Western with α-CDHR3 and α-C15
[9] = molecular target: FLAG-tag-CDHR3 Y529 K43A (human) (UniProt Q6ZTQ4); assay: as above
[10] = molecular target: FLAG-tag-CDHR3 Y529 W76A (human) (UniProt Q6ZTQ4); assay: as above
[11] = molecular target: FLAG-tag-CDHR3 Y529 N186A (human) (UniProt Q6ZTQ4); assay: as above
[12] = molecular target: FLAG-tag-CDHR3 Y529 R166A (human) (UniProt Q6ZTQ4); assay: as above
[13] = molecular target: the molecule itself; assay: SEC; HiPrep 16/60 Sephacryl S200, refolded protein 0.5–1.5 mg, 1 mL/min, 20 mM Tris (pH 8.0), 137 mM NaCl, 2 mM CaCl2

Molecule: rhinovirus C15 virion (complex)
- binding % relative to the positive control (100) of the panel [1]: 68%
- binding % relative to WT rEC1-3 [2]: 85 % of WT
- binding % relative to the positive control (100) of the panel [3]: 100%
- binding % relative to the positive control (100) of the panel [4]: 61%
- binding % relative to the positive control (100) of the panel [5]: 87%
- binding % relative to WT rEC1-3 [6]: 22%
- binding % after refolding relative to the same protein not refolded [7]: 213%
- binding % relative to WT CDHR3 (C15 signal normalized to CDHR3 signal) [8]: 19%
- binding % relative to WT CDHR3 (C15 signal normalized to CDHR3 signal) [9]: 46%
- % more virus pull-down than WT (% more than WT) [10]: 50 to 80
- binding % relative to WT CDHR3 (C15 signal normalized to CDHR3 signal) [11]: 11%
- binding % relative to WT CDHR3 (C15 signal normalized to CDHR3 signal) [12]: 16%

B1: rEC1-3 (CDHR3 residues 20–345, C345A) (domain or fragment)
chain: LHLILLPATGNVAENSPPGTSVHKFSVKLSASLSPVIPGFPQIVNSNPLTEAFRVNWLSGTYFEVVTTGMEQLDFETGPNIFDLQIYVKDEVGVTDLQVLTVQVTDVNEPPQFQGNLAEGLHLYIVERANPGFIYQVEAFDPEDTSRNIPLSYFLISPPKSFRMSANGTLFSTTELDFEAGHRSFHLIVEVRDSGGLKASTELQVNIVNLNDEVPRFTSPTRVYTVLEELSPGTIVANITAEDPDDEGFPSHLLYSITTVSKYFMINQLTGTIQVAQRIDRDAGELRQNPTISLEVLVKDRPYGGQENRIQITFIVEDVNDNPATA
notes: numbering from GenBank AIC58018; also called soluble CDHR3 rEC1-3; not shown: His6, C-terminal, kept
- binding result [13]: binds

B2: rEC1-2 (CDHR3 residues 20–237) (domain or fragment)
chain: LHLILLPATGNVAENSPPGTSVHKFSVKLSASLSPVIPGFPQIVNSNPLTEAFRVNWLSGTYFEVVTTGMEQLDFETGPNIFDLQIYVKDEVGVTDLQVLTVQVTDVNEPPQFQGNLAEGLHLYIVERANPGFIYQVEAFDPEDTSRNIPLSYFLISPPKSFRMSANGTLFSTTELDFEAGHRSFHLIVEVRDSGGLKASTELQVNIVNLNDEVPRFT
notes: CDHR3, human, residues 20-237 (EC1 and EC2); numbering from GenBank AIC58018; also called rE1-2; rEC1-2 WT; not shown: His6, C-terminal, kept
- binding result [13]: binds

B3: rEC1-2 W76A (CDHR3 residues 20–237, W76A) (domain or fragment, human, UniProt Q6ZTQ4 20-237, looked up)
chain: B2 chain with W57A
notes: CDHR3, human, residues 20-237; numbering from GenBank AIC58018; not shown: His6, C-terminal, kept
- binding result [13]: binds
